“Also recorded” adds a separate entry of the source.
How the values were obtained:
[1] = tested on: primary human hepatocytes; assay: Palmitate loading (lipotoxicity) of primary human hepatocytes; format: cell-based; settings: palmitate:BSA 6:1
Procedure: Palmitate:BSA conjugated solution in the ratio of 6:1 was prepared as described earlier (Alsabeeh et al., 2018). Palmitate (0.5 mM) conjugated in fatty acids free BSA was used to treated cells as described in figure legends; 0.5% BSA solution was used as control. […]
Primary human hepatocytes were seeded on 8-well chamber slides (1×10^4 cells/well). For this experiment, cells were not serum-starved prior to palmitate treatment. 24 hours following palmitate stimulation, cells were washed, incubated with 25 μM of DCFDA solution (ab113851, Abcam) for 45 minutes at 37° C. in the dark, and rinsed with dilution buffer according to the manufacturer's protocol. Live cells with positive DCF staining were imaged with filter set appropriate for fluorescein (FITC) using a fluorescence microscope (Leica). […]
(§1) Western blots were carried out on total protein extracts from hepatocytes and liver tissues. Hepatocyte and liver tissue lysates were homogenized in RIPA Lysis and Extraction Buffer (89901, Thermo Scientific) containing protease and phosphatase inhibitors (Roche). Protein lysates were separated by SDS-PAGE and transferred to PVDF membranes. Protein bands were visualized using the ECL detection system (Pierce) with the appropriate secondary antibodies: anti-rabbit HRP or anti-mouse HRP.

HSCs = assay: IL-11 expression and secretion by HSCs (RNA-seq, ELISA); format: cell-based, human; settings: for IL-11 secretion from HSCs: ELISA
Text: TGFβ1 stimulation of human hepatic stellate cells and antibody treatment in HFMCD: Sequenced libraries were demultiplexed using bcl2fastq v2.19.0.316 with the-no-lane-splitting option. Adapter sequences were then trimmed using trimmomatic^6 v0.36 in paired end mode with the options MAXINFO:35:0.5 MINLEN:35. Trimmed reads were aligned to the Homo sapiens GRCh38 using STAR′ v. 2.2.1 with the options—outFilterType BySJout-outFilterMultimapNmax 20-alignSJoverhangMin 8-alignSJDBoverhangMin 1-outFilterMismatchNmax 999-alignIntronMin 20-alignIntronMax 1000000-alignMatesGapMax 1000000 in paired end, single pass mode. Only unique alignments were retained for counting. Counts were calculated at the gene level using the FeatureCounts module from subread^8v. 1.5.1, with the options -O-s 2-J-T 8-p-R-G. The Ensembl release 86 hg38 GTF was used as annotation to prepare STAR indexes and for FeatureCounts.
The levels of IL-11 and MMP-2 in equal volumes of cell culture media were quantified using Human IL-11 Quantikine ELISA kit (D1100, R&D Systems) and Total MMP-2 Quantikine ELISA kit (MMP200, R&D Systems), respectively. Total secreted collagen in the cell culture supernatant was quantified using Sirius red collagen detection kit (9062, Chondrex). Total hydroxyproline content in the livers was measured using Quickzyme Total Collagen assay kit (Quickzyme Biosciences). Mouse serum levels of alanine aminotransferease (ALT), cholesterol, and triglycerides were measured using Alanine Transaminase Activity Assay Kit (ab105134, abcam), Cholesterol Assay Kit (ab65390, abcam), and Triglyceride Assay Kit (ab65336, abcam), respectively. Liver Triglycerides (TG) measurements were performed using triglyceride colorimetric assay kit (Ser. No. 10/010,303, Cayman). All ELISA and colorimetric assays were performed according to the manufacturer's protocol.

[2] = tested on: primary human hepatocytes; assay: Stimulation of primary human hepatocytes with IL11, hyperIL11, hyperIL6; format: cell-based; settings: for ERK and JNK (non-canonical signaling) activation: 2.5 ng/ml to 20 ng/ml
Procedure: Human hepatocytes (5200, ScienCell) were grown and maintained in hepatocyte media (5201, ScienCell) supplemented with 2% fetal bovine serum (FBS) and 1% Penicillin-streptomycin.
Primary human hepatocytes (5200, ScienCell) were maintained in hepatocyte medium ([…], ScienCell) supplemented with 2% fetal bovine serum, 1% Penicillin-streptomycin at 37° C. and 5% CO2. Hepatocytes (P2-P3) were serum-starved overnight unless otherwise specified in the methods prior to 24 hours stimulation with different doses of various recombinant proteins as described.
For surface IL11RA, IL6R, and gp130 analysis, primary human hepatocytes and THP-1 cells were stained with IL11RA, IL6R, or gp130 antibody and the corresponding Alexa Fluor 488 secondary antibody. Cell death analysis was performed by staining primary human hepatocytes with Dead Cell Apoptosis Kit with Annexin V FITC and PI (V13242, Thermo Fisher). PI+ve cells were then quantified with the flow cytometer (Fortessa, BD Biosciences) and analyzed with FlowJo version X software (TreeStar).
Alanine Aminotransferase (ALT) activity in the cell culture supernatant and mouse serum was measured using ALT Activity Assay Kit (ab105134, Abcam). Liver Glutathione (GSH) levels were measured using Glutathione Colorimetric Detection Kit (EIAGSHC, Thermo Fisher). Total hydroxyproline content in mouse livers was measured using Quickzyme Total Collagen assay kit (QZBtotco15, Quickzyme Biosciences). The levels of serum and liver triglycerides were measured using Triglyceride Assay Kit (ab65336, Abcam). Mouse serum levels of Aspartate Aminotransferase (AST) and cholesterol were measured using AST Assay Kit (ab105135, Abcam) and Cholesterol Assay Kit (ab65390; Abcam), respectively. All colorimetric assays were performed according to the manufacturer's protocol.
as §1

[3] = tested on: wild-type C57BL/6J and Col1a1-GFP reporter mice; assay: Daily subcutaneous injection of recombinant mouse IL-11; format: in vivo
Procedure: Recombinant mouse IL-11 (rmIL11) was reconstituted to a concentration of 50 μg ml^−1 in saline. Ten-week-old male wild-type C57BL/6J mice received daily subcutaneous injection of either 100 μg kg^−1 of rmIL11 in saline (n=19) or an identical volume of saline (n=15) for 21 days.
Ten week old male Col1a1-GFP reporter mice 19 and wild-type C57BL/6J mice received daily subcutaneous injection of either 100 μg/kg of recombinant mouse Il-11 (rmIl-11) or identical volume of saline for 21 days.

CCCCCCCCCCCCCCCC(=O)O [palmitate, Palmitate, reference compound]
IL11 secretion, FC vs control [1]: 28

CCL2: human CCL2 recombinant protein, NASH stimulus
IL-11 secretion from HSCs (HSCs): induce IL-11 secretion

PDGF
IL-11 secretion from HSCs (HSCs): induce IL-11 secretion

TGFβ1: human TGFβ1 recombinant protein, pro-fibrotic stimulus [reference compound]
IL-11 secretion from hepatocytes ([2]; TGFβ1 5 ng/ml, 24 h): robustly secreted IL-11 | IL-11 upregulation in HSCs (RNA-seq) (HSCs; TGFβ1 5 ng/ml, 24 h): 14.9 fold

angiotensin II: human angiotensin (Sigma-Aldrich), NASH stimulus (DRVYIHPF; Angiotensin-2; UniProt P01019 25-32, looked up)
IL-11 secretion from HSCs (HSCs): induce IL-11 secretion

bFGF: human bFGF recombinant protein, NASH stimulus
IL-11 secretion from HSCs (HSCs): induce IL-11 secretion

hyperIL6: IL6R:IL6 fusion protein, synthetic IL6 trans-signaling construct (R&D systems) [reference compound]
ERK and JNK (non-canonical signaling) activation ([2]; 24 h): did not activate | ALT in the media, fold change (FC) ([2]; 20 ng/ml): 0.9 | STAT3 activation ([2]; dose range, 24 h): dose-dependently induced STAT3 activation

B1: rmIL11: Recombinant mouse IL-11 (UniProtKB: P47873) (protein)
chain: PGPPAGSPRVSSDPRADLDSAVLLTRSLLADTRQLAAQMRDKFPADGDHSLDSLPTLAMSAGTLGSLQLPGVLTRLRVDLMSYLRHVQWLRRAGGPSLKTLEPELGALQARLERLLRRLQLLMSRLALPQAAPDQPVIPLGPPASAWGSIRAAHAILGGLHLTLDWAVRGLLLLKTRL
expression of key pro-fibrotic and pro-inflammatory genes ([3]; 100 μg/kg daily s.c., 21 days): increased | hepatic collagen content ([3]; 100 μg/kg daily s.c., 21 days): increased | serum alanine aminotransferase (ALT) ([3]; 100 μg/kg daily s.c., 21 days): increased | weight gain ([3]; 100 μg/kg daily s.c., 21 days, vs saline): slowed normal mouse weight gain progression; also recorded: gained less weight | Col1a1+ve myofibroblasts in the liver ([3]; Col1a1-GFP reporter mice): accumulated GFP-expressing Col1a1^+ve myofibroblasts in the liver

B2: sIL11RA: soluble IL11RA, human IL11RA (R&D systems), to potentiate putative trans-signaling (protein, UniProt Q14626 24-370, looked up)
extracellular domain: SPCPQAWGPPGVQYGQPGRSVKLCCPGVTAGDPVSWFRDGEPKLLQGPDSGLGHELVLAQADSTDEGTYICQTLDGALGGTVTLQLGYPPARPVVSCQAADYENFSCTWSPSQISGLPTRYLTSYRKKTVLGADSQRRSPSTGPWPCPQDPLGAARCVVHGAEFWSQYRINVTEVNPLGASTRLLDVSLQSILRPDPPQGLRVESVPGYPRRLRASWTYPASWPCQPHFLLKFRLQYRPAQHPAWSTVEPAGLEEVITDAVAGLPHAVRVSARDFLDAGTWSTWSPEAWGTPSTGTIPKEIPAWGQLHTQPEVEPQVDSPAPPRPSLQPHPRLLDHRDSVEQVAVLA
modifications: extracellular domain
IL11-induced hepatocyte death and signaling ([2]; IL11 20 ng/ml, sgp130 or sIL11RA 1 μg/ml): unaffected | ALT release from IL11-stimulated hepatocytes ([2]; increasing doses of sgp130 or sIL11RA): no effect | IL11 dose-dependent hepatocyte cell death on addition of decoy ([2]; sgp130 or sIL11RA 1 μg/ml): unaffected

B3: hyperIL11: IL11RA:IL11 fusion protein mimicking the trans-signalling complex, SEQ ID NO:21 (protein)
chain: MSSSCSGLSRVLVAVATALVSASSPCPQAWGPPGVQYGQPGRSVKLCCPGVTAGDPVSWFRDGEPKLLQGPDSGLGHELVLAQADSTDEGTYICQTLDGALGGTVTLQLGYPPARPVVSCQAADYENFSCTWSPSQISGLPTRYLTSYRKKTVLGADSQRRSPSTGPWPCPQDPLGAARCVVHGAEFWSQYRINVTEVNPLGASTRLLDVSLQSILRPDPPQGLRVESVPGYPRRLRASWTYPASWPCQPHFLLKFRLQYRPAQHPAWSTVEPAGLEEVITDAVAGLPHAVRVSARDFLDAGTWSTWSPEAWGTPSTGPAGQSGGGGGSGGGSGGGSVPGPPPGPPRVSPDPRAELDSTVLLTRSLLADTRQLAAQLRDKFPADGDHNLDSLPTLAMSAGALGALQLPGVLTRLRADLLSYLRHVQWLRRAGGSSLKTLEPELGTLQARLDRLLRRLQLLMSRLALPQPPPDPPAPPLAPPSSAWGGIRAAHAILGGLHLTLDWAVRGLLLLKTRL
modifications: Hyper IL-11 (IL-11RAIL-11 fusion)
ERK and JNK (non-canonical signaling) activation ([2]; 24 h): activated ERK and JNK in a dose-dependent manner | alanine transaminase (ALT) in the media ([2]; dose range, 24 h): dose-dependent increase | IL-11 secretion from HSCs (HSCs): secreted IL-11
